Here are results for two molecules from US8535680B2, “Anti-LPS factor from Parietaria judaica and methods of use thereof” (Consiglio Nazionale Delle Ricerche, priority 2008, dated 2013).

No end group written: not given here.

The subject of one data set is HeLa cells. In words: Cytotoxicity test with HeLa cells (MTS, CellTiter 96 AQueous One). In kind it is cell-based, human. The following applies: 0.5-5-50 μg/ml, 48 h; FIG. 5. How it is done:
FIG. 5: Cytotoxicity test carried out with HeLa cells in culture. The assay describes the bioreduction of MTS (Owen's Reagent) produced by enzymes having dehydrogenase activity present in metabolically active cells.
The cytotoxity tests were carried out on HeLa cell lines growing in adhesion. Cell lines were maintained in RPMI 1640 culture medium containing 10% fetal calf serum and 0.1% antibiotics (penicillin, streptomycin and gentamycin); cultivated under humid 5% CO2 atmosphere at 37° C. To carry out the cytotoxicity test, the system CellTiter 96 AQueous One Solution Cell Proliferation Assay by Promega was used. In short, Hela cells were resuspended in a 100 μl volume of medium at a concentration of 10,000 cells/ml, then seeded on 96-well flat bottom plates and left to adhere in incubator at 37° C. for 3 h. Thereafter, Par37 peptide was added at increasing concentrations (0.5-5-50 μg/ml). The plate was incubated at 37° C. in 5% CO2 for further 48 h. Then 20 μl of CellTiter 96 AQueous One Solution reagent were added. Cells were thus incubated for 1 h at 37° C. in a CO2 incubator. The test was carried out in triplicate and compared to a row of blanks containing exclusively culture medium. After incubation, a spectrophotometer reading was carried out, measuring absorbance at 490 nm.

Data set [1] relates to heparinised blood from Pj allergic subjects. In words: Histamine release from blood of Pj allergic patients. Type of data set: cell-based, human. The following applies: 0.0001 to 1 μg/ml; Pj allergic subjects n=5; FIG. 9. As for the experimental part: FIG. 9: Testing of histamine release from blood of Pj allergic patients. The antigens used were: rParj1 (line with squares, denominated Pj1) and the Par37 peptide (line with triangles). On the x-axis the amounts of protein used, and on the y-axis the percentage of histamine released with respect to the percentage of total histamine present in the patient's mastocytes are reported.
The histamine release assay was carried out by using heparinised blood from Pj allergic subjects (n=5) and an allergen concentration scale ranging from 0.0001 and 1 μg/ml. Release protocol was carried out as previously described (Colombo, P., et al., Identification of an immunodominant IgE epitope of the Parietaria Judaica major allergen. J. Immunol, 1998. 160(6): p. 2780-5). The data reported in FIG. 9 show the percentage of release obtained after stimulation with Parj1 allergen.

In a further data set the test system is human erythrocytes. In words: Hemolysis test. In kind it is cell-based. The following applies: 0.0025-0.025-0.25-2.5-25 mM; 6% erythrocytes; reading at 415 nm; FIG. 6. As for the experimental part: FIG. 6: Hemolysis test with human erythrocytes. The assay is capable of describing possible hemolysis induced after incubation with Par37 peptide at different concentrations. There were used 1×PBS as negative control and 0.1% Triton X100 as positive control. Optical Densities measured at […] indicate hemoglobin release in the medium following cell lysis.
For the hemolysis test, peripheral blood, collected from a donor, in heparin was used. A solution of 6% human erythrocytes was prepared. Erythrocyte concentration was controlled by reading the optical density of an hemolysate of the cell suspension thus made: 0.5 ml blood+7 ml distilled water should give a reading of 0.7 O.D. at the spectrophotometer at 541 nm. Erythrocytes were incubated in triplicate with an increasing concentration of Par37 (0.0025-0.025-0.25-2.5-25 mM) and with 1×PBS as negative control and a 0.1% solution of Triton X100 as positive control. Sample reading was carried out at 415 nm.

Data set [2] relates to LPS (Escherichia coli, serotype 026:B6). Type of data set: binding.
Data set [3] has as its system PBMC of non-allergic subjects. In words: ELISA of IFN-γ release from PBMC stimulated with the antigen itself. The following applies: 1 and 10 μg/ml; healthy subjects n=4; FIG. 8. On the technique in general: In an ELISA, binding on a coated surface is turned into a signal by an enzyme label.
Description: Black bars indicate the values of the unstimulated sample (negative control), checkered bars the values of cells stimulated by rParj1.01, white bars the values obtained from cells stimulated by Par37 peptide.
(IFN-γ) cytokine production in supernatants after stimulation with the various antigens was evaluated by ELISA, using commercial kits and following the manufacturers' (GE healthcare, IFNg, Human, Biotrak) instructions.
The subject of data set [4] is PBMC from Pj allergic patients and non-allergic subjects. In words: PBMC proliferation (Cell Proliferation ELISA, BrdU). In kind it is cell-based, human. Particulars: 0.1, 1 and 10 μg/ml, 5 days; 3 Pj allergic patients and 3 non-allergic subjects; FIG. 7. How it is done: FIG. 7: Analysis of PBMC proliferation of 3 Pj allergic patients and 3 healthy subjects. Stimulation was conducted by adding to the culture medium rParj1 and Par37 synthetic peptide at a concentration of 0.1, 1 and 10 μg/ml. Numerical values on the y-axis indicate proliferation indexes with respect to the unstimulated sample. White histograms identify PBMC stimulated by Parj1, black histograms identify PBMC stimulated by Par37 peptide. Horizontal bars indicate significance values (values above the bar indicate a positive stimulation; values below the bar indicate absence of proliferation).
PBMC from Pj allergic patients (n=3) and non-allergic subjects (n=3) were purified by Ficoll gradient and resuspended in complete RPMI (10% AB serum). Cells were stimulated 5 days with 0.1, 1 and 10 μg/ml rParj1 and Par37. For the determination of stimulation indexes, cells were treated according to what described in the Cell Proliferation ELISA kit, BrdU (colorimetric) (Roche).

For “LPVSLRHGPVTGPSDPAHKARLERPQIRVPPPAPEKA [Par37]”, the “toxic effect on HeLa cells (MTS bioreduction, absorbance 490 nm)” value in the data set with HeLa cells is given as “no toxic effect”. Moreover, the “histamine release (anaphylactic activity)” value in data set [1] is given as “no histamine release is observed”. Moreover, the “hemolytic effect on human erythrocytes” value in the data set with human erythrocytes is listed as “no hemolytic effect”.

B1: QETCGTMVRALMPCLPFVQGKEKEPSKGCCSGAKRLDGETKTGPQRVHACECIQTAMKTYSDIDGKLVSEVPKHCGIVDSKLPPIDVNMDCKTVGVVPRQPQLPVSLRHGPVTGPSDPAHKARLERPQIRVPPPAPEKA (protein)
chain: QETCGTMVRALMPCLPFVQGKEKEPSKGCCSGAKRLDGETKTGPQRVHACECIQTAMKTYSDIDGKLVSEVPKHCGIVDSKLPPIDVNMDCKTVGVVPRQPQLPVSLRHGPVTGPSDPAHKARLERPQIRVPPPAPEKA
notes: Recombinant isoform of Parietaria judaica major allergen Parj1, 139 aa, containing the Par37 region
B1: the LPS-binding capability result in data set [2] (FIG. 3, native isoforms of Parj1) is “has the LPS-binding capability”. Besides, the “lowest dilution with positive reaction to the endotoxin in the LAL test (endpoint)” value in data set [2] (eluate of HisTrap column loaded with 100 μg protein, then 100 μg LPS, LAL sensitivity 0.12 EU) is 1/256. The “IFN-γ release from PBMC induced by the antigen itself” value in data set [3] is recorded as “impressive secretion of cytokine”. Also, the “cell proliferation (lymphoproliferative activity) of PBMC” value in data set [4] is listed as “capable of inducing cell proliferation in all allergic patients”.
